The labels stand for the following.
B1: Ab16 (antibody, V domains shown)
VH: EVQLLESGGGLVQPGGSLRLSCAASGFTFSNYAMSWVRQAPGKGLEWVSAISGSGFTTYYADSVKGRFTISRDNSKNTLYLQMNSLRAEDTAVYYCARVSSGHWDFDYWGQGTLVTVSS
VL: DIQLTQSPSSLSASVGDRVTITCRASQSISSYLNWYQQKPGKAPKLLIYAASNLQSGVPSRFSGSGSGTDFTLTISSLQPEDFATYYCQQTYTVPLTFGGGTKVEIK
B2: Ab10 (antibody, V domains shown)
VH: B1 VH with S30R, A50S, F56G, T57A
VL: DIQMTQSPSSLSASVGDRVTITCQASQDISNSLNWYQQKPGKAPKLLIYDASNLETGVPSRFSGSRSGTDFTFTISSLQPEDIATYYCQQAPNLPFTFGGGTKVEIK
B3: Ab36 (antibody, V domains shown)
VH: B1 VH with S30R, A50S, F56G, T57A, F106L
VL: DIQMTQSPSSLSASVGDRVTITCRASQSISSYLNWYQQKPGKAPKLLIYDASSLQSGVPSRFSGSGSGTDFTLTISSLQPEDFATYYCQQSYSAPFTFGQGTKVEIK
B4: Ab7 (antibody, V domains shown)
VH: B1 VH with S30A, N31D, S35T, S54T, F56A, T57H
VL: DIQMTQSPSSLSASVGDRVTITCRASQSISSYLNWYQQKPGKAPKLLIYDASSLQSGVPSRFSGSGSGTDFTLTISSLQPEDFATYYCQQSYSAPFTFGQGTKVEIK
B5: Ab9 (antibody, V domains shown)
VH: B1 VH with E1Q, L5V, L11V, N31S, Y32F, S35T, F56A, T57A, Y60F
VL: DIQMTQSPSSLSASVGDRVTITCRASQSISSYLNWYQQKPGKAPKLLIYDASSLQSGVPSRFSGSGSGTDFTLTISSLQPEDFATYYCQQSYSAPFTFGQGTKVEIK
B6: Ab13 (antibody, V domains shown)
VH: B1 VH with S30A, N31D, S35T, G53S, S54F, G55A, F56S, T57A, T58I
VL: B1 VL with L4M, N53S, T91V, T93D, V94P
B7: Ab8 (antibody, V domains shown)
VH: B1 VH with E1Q, L5V, L11V, G16R, N31D, S35V
VL: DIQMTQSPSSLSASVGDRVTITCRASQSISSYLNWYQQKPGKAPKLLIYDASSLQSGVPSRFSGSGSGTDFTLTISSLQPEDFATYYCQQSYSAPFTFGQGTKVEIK
B8: Ab15 (antibody, V domains shown)
VH: B1 VH with L5V, L11V, G16R, N31D, S35V
VL: B1 VL
B9: Ab14 (antibody, V domains shown)
VH: B1 VH with N31A, S35T, S54T, F56G, T57S
VL: B1 VL with L4M, N53S, T91V, T93D, V94P
B10: Ab18 (antibody, V domains shown)
VH: B1 VH with E1Q, L5V, L11V, G16R, N31D, S35V, F56A, T57A, Y60F, R98T
VL: B1 VL
B11: Ab17 (antibody, V domains shown)
VH: B1 VH with L11V, N31S, Y32F, S35T, F56A, T57A, Y60F
VL: B1 VL
B12: Ab28 (antibody, V domains shown)
VH: EVQLVESGGGLVQPGGSLRLSCAASGFTFSSFSMDWVRQAPGKGLEWVSYISPDASTIYYADSVKGRFTISRDNAKNSLYLQMNSLRAEDTAVYYCVRGVLDYGDMLDPWGQGTLVTVSS
VL: DIQMTQSPSSLSASVGDRVTITCQASQDITNYLNWYQQKPGKAPKLLIYDASNLETGVPSRFSGSGSGTDFTFTISSLQPEDIATYYCQQADNHPPWTFGGGTKVEIK
B13: Ab27 (antibody, V domains shown)
VH: B12 VH with S31F, F32Y, S33A, D35N, V97A
VL: B12 VL
B14: Ab32 (antibody, IgG4, V domains shown)
VH: B12 VH with D35N, D54S, S56D, S78T, V97A, L101W, Y103M
VL: B12 VL
B15: Ab30 (antibody, IgG4, V domains shown)
VH: B12 VH with V97A, V100T
VL: B12 VL
B16: Ab21 (antibody, V domains shown)
VH: B12 VH with V97A
VL: B12 VL
B17: Ab25 (antibody, V domains shown)
VH: B12 VH with S30G, V97A
VL: B12 VL
B18: Ab23 (antibody, V domains shown)
VH: B12 VH with D35N, D54S, S56D, S78T, V97A
VL: B12 VL
B19: Ab24 (antibody, IgG4, V domains shown)
VH: B12 VH with G16R, S33A, D35Y, V97A
VL: B12 VL
B20: Ab22 (antibody, IgG4, V domains shown)
VH: B12 VH with S30G, D35N, S52H, P53S, V97A
VL: B12 VL
B21: Ab31 (antibody, IgG4, V domains shown)
VH: B12 VH with S78T, V97A, G99A
VL: B12 VL
B22: Ab1 (antibody, V domains shown)
VH: B1 VH with S30R, A50S, F56G, T57A
VL: DIQLTQSPSSLSASVGDRVTITCQASQDISNFLNWYQQKPGKAPKLLIYDASNLETGVPSRFSGSGSGTDFTFTISSLQPEDIATYYCQQVFNPPLTFGGGTKVEIK
B23: Ab5 (antibody, V domains shown)
VH: B12 VH with V97A
VL: B12 VL

What is called Kd is a measure of binding affinity in units of concentration.

Residue numbers refer to the chain shown, from its start.

For one assay, the target named is T1, human LRRC33-proTGFβ1 complex (human, UniProt P01137 30-390; Q86YC3 19-650).
T1 construct: also called hLRRC33-proTGFβ1; hLRRC33
T1 sequence (P01137 30-390 limits assumed, chain 1 of 2): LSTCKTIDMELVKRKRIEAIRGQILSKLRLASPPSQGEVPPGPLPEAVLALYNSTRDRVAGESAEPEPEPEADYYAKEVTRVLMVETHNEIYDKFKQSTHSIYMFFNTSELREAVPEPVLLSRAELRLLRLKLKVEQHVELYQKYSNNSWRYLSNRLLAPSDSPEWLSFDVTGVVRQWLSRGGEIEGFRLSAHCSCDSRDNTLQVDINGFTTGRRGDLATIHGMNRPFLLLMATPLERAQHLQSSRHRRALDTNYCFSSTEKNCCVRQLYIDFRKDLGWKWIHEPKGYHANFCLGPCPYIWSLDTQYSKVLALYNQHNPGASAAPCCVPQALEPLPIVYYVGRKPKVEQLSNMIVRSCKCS
T1 sequence (Q86YC3 other isoform, or with tags, fused parts or gaps limits assumed, chain 2 of 2): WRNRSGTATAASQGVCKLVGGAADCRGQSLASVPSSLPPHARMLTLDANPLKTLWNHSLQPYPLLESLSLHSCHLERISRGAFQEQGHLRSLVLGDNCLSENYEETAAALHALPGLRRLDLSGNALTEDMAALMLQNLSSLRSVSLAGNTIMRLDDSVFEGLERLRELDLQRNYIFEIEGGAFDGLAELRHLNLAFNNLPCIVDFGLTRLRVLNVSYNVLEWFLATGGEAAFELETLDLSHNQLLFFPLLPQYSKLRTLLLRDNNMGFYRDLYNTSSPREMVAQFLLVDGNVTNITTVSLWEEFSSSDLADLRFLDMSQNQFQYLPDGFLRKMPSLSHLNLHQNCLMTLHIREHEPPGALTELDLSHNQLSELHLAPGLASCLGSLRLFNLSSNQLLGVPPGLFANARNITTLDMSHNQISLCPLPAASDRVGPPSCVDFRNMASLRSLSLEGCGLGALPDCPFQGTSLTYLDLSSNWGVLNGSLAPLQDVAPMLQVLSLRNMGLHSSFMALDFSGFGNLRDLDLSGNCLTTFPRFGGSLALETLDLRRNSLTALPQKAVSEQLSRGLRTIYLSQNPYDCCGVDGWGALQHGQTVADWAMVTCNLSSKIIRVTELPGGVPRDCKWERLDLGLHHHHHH
Nature of the assay: BLI (Octet). On the procedure: (§1) The affinity of anti-TGFβ1 antibodies was measured by Octet@ assay on human proTGFβ1 cells, while activity was measured by CAGA12 reporter cells testing human proTGFβ1 inhibition.
Take B1: the affinity, expressed as Kd, was 0.631 nM.
The same measure, in the same setting: with B2 the figure was 1.06 nM.
In the case of B3, binding was put at a Kd of 1.42 nM.
Same read-out and setting: with B4 the figure was 10.3 nM; with B5, 1.3 nM.
The same measure, in the same setting: with B6 the figure was 1.4 nM.
Same read-out and setting: under B7 stands 10 nM; under B8, 0.702 nM; under B9, 1.34 nM.
B10 came in with a Kd of 1.02 nM.
For B11, the Kd is 0.658 nM.
B12 yielded a dissociation constant (Kd) of 0.409 nM.
Still for that read-out and setting: with B13 the figure was 0.299 nM.
For B14, binding was put at a Kd of 0.698 nM.
For the molecule B15, binding was characterised by a dissociation constant (Kd) of 0.535 nM.
Same read-out and setting: with B16 the figure was 0.455 nM.
The same measure, in the same setting: with B17 the figure was 0.409 nM; with B18, 0.455 nM.
Same read-out and setting: with B19 the figure was 0.41 nM; with B20, 0.415 nM.
In turn, B21 came in with a dissociation constant (Kd) of 0.41 nM.

A further assay concerns the target T2, human GARP-proTGFβ1 complex (human, UniProt P01137 30-390; Q14392 20-627).
T2 construct: also called hGARP-proTGFβ1; hGARP
In words: BLI (Octet). On the procedure: as §1
(In general: In BLI a coated tip is dipped into the sample, and binding shifts an interference pattern.)
For B1, the Kd turned out to be 4.16 nM.
Still for that read-out and setting: under B2 stands 10.2 nM; under B3, 12.8 nM; under B4, 18 nM.
Regarding B5, the Kd was 15.5 nM.
The molecule B6 came in with a Kd of 10 nM.
The molecule B7 registered a Kd of 15.4 nM.
Molecule B8 came in with a dissociation constant Kd of 7.01 nM.
On the same count and under the same terms, with B9 the figure was 10.5 nM.
Molecule B10 had a dissociation constant (Kd) of 11.5 nM.
B11 returned a dissociation constant (Kd) of 8.62 nM.
Still for that read-out and setting: with B12 the figure was 0.797 nM; with B13, 0.424 nM.
B14 had an equilibrium dissociation constant (Kd) of 0.496 nM.
The same measure, in the same setting: under B15 stands 0.833 nM; under B16, 0.833 nM.
Still for that read-out and setting: under B17 stands 0.488 nM; under B18, 1.34 nM; under B19, 0.665 nM.
Same read-out and setting: with B20 the figure was 0.974 nM; with B21, 0.581 nM.

The next assay addresses T1, human LRRC33-proTGFβ1 complex. Nature of the assay: MSD-SET, hIgG4. On the procedure:
(§2) MSD-SET assays were performed to measure affinities of the antibodies at equilibrium. Briefly, each test antibody was diluted 3-5 fold and samples were mixed with biotinylated antigen in a 48-well dish. The SET samples were equilibrated for 20-24 hours at room temperature. Meanwhile, a capture plate was coated with IgG (20 nM) and incubated overnight at 4° C. or 30 minutes at room temperature, followed by a blocking step with 5% BSA. After the capture plate was washed three times, SET samples were added and incubated for 150 seconds. The plate was washed once to remove unbound complexes. 250 ng/ml SA-Sulfotag was added then washed 3 times. 2× Read Buffer was added, and signals from the labeled bound complexes were read with the use of QuickPlex™ SQ 120 instrument.
Turning to B14, binding was characterised by a dissociation constant (Kd) of 0.087 nM.
As to B15, the dissociation constant Kd came out at 0.14 nM.
B19 returned a Kd of 0.18 nM.
The same measure, in the same setting: with B20 the figure was 0.2 nM.
Still for that read-out and setting: under B21 stands 0.096 nM.

In another assay the target is T2, human GARP-proTGFβ1 complex. Nature of the assay: MSD-SET, hIgG4. On the procedure: as §2
The molecule B14 had a dissociation constant Kd of 0.015 nM.
As to B15, binding was put at a Kd of 0.022 nM.
Molecule B19 showed a Kd of 0.019 nM.
For the molecule B20, the Kd worked out at 0.027 nM.
Same read-out and setting: with B21 the figure was 0.019 nM.

A further assay addresses hLRRC33-proTGFβ1 presented on cells (human, UniProt P01137 30-390; Q86YC3 19-692). Nature of the assay: cell-based or functional assay.
As to B22, the “IC50, reporter cell assay” value stood at 5.37 nM.
The same measure, in the same setting: under B23 stands 0.616 nM.
On the same count and under the same terms, with B16 the figure was 0.596 nM; with B17, 0.653 nM; with B18, 0.579 nM.

The target of the next assay is hLTBP3-proTGFβ1 as produced in the cell-based activation assay (human, UniProt P01137 30-390; Q9NS15 44-1303). In words: cell-based or functional assay.
hLTBP3-proTGFβ1 as produced in the cell-based activation assay, sequence (P01137 30-390 limits assumed, chain 1 of 2): as the sequence (P01137 30-390 limits assumed, chain 1 of 2) above
hLTBP3-proTGFβ1 as produced in the cell-based activation assay, sequence (Q9NS15 44-1303 limits assumed, chain 2 of 2): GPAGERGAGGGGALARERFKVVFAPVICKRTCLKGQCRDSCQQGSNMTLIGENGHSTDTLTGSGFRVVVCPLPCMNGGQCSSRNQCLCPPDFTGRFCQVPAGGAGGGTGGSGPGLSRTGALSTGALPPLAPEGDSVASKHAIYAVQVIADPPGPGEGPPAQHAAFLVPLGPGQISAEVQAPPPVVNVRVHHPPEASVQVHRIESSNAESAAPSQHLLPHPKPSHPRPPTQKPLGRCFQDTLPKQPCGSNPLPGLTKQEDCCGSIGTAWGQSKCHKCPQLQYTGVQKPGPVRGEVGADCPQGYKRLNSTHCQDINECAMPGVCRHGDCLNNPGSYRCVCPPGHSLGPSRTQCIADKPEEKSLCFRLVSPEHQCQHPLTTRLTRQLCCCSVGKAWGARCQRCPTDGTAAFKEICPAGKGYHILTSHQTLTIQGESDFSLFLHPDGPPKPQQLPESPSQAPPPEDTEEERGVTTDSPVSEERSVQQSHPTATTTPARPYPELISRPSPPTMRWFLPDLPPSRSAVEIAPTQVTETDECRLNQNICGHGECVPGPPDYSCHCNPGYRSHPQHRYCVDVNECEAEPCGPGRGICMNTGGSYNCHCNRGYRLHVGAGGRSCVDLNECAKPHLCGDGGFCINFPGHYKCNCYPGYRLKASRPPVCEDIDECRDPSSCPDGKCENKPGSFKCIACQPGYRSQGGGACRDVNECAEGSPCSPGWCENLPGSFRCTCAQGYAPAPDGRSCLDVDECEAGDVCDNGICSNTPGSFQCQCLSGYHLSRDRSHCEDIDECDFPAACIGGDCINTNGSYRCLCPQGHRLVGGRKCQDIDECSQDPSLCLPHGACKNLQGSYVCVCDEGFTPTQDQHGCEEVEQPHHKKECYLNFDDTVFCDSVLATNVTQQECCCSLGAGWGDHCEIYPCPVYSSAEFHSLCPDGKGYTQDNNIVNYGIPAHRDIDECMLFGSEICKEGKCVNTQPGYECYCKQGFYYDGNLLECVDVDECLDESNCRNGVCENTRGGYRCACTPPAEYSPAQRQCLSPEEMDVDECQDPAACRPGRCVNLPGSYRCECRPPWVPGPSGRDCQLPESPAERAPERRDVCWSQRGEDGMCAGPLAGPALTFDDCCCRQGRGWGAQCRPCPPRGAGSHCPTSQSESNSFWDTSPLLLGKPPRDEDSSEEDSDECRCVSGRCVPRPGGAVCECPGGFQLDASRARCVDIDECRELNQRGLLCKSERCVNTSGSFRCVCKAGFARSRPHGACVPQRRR
Consider B22, for which the “IC50, reporter cell assay” value stood at 2.71 nM.
On to B23, for which the “IC50, reporter cell assay” value came to 1 nM.
The same measure, in the same setting: with B16 the figure was 0.765 nM.
As to B17, the “IC50, reporter cell assay” value turned out to be 0.538 nM.
The same measure, in the same setting: under B18 stands 0.879 nM.

The next assay deals with hLTBP1-proTGFβ1 as produced in the cell-based activation assay (human, UniProt P01137 30-390; Q14766 347-1721). In words: cell-based or functional assay.
hLTBP1-proTGFβ1 as produced in the cell-based activation assay, sequence (P01137 30-390 limits assumed, chain 1 of 2): as the sequence (P01137 30-390 limits assumed, chain 1 of 2) above
hLTBP1-proTGFβ1 as produced in the cell-based activation assay, sequence (Q14766 347-1721 limits assumed, chain 2 of 2): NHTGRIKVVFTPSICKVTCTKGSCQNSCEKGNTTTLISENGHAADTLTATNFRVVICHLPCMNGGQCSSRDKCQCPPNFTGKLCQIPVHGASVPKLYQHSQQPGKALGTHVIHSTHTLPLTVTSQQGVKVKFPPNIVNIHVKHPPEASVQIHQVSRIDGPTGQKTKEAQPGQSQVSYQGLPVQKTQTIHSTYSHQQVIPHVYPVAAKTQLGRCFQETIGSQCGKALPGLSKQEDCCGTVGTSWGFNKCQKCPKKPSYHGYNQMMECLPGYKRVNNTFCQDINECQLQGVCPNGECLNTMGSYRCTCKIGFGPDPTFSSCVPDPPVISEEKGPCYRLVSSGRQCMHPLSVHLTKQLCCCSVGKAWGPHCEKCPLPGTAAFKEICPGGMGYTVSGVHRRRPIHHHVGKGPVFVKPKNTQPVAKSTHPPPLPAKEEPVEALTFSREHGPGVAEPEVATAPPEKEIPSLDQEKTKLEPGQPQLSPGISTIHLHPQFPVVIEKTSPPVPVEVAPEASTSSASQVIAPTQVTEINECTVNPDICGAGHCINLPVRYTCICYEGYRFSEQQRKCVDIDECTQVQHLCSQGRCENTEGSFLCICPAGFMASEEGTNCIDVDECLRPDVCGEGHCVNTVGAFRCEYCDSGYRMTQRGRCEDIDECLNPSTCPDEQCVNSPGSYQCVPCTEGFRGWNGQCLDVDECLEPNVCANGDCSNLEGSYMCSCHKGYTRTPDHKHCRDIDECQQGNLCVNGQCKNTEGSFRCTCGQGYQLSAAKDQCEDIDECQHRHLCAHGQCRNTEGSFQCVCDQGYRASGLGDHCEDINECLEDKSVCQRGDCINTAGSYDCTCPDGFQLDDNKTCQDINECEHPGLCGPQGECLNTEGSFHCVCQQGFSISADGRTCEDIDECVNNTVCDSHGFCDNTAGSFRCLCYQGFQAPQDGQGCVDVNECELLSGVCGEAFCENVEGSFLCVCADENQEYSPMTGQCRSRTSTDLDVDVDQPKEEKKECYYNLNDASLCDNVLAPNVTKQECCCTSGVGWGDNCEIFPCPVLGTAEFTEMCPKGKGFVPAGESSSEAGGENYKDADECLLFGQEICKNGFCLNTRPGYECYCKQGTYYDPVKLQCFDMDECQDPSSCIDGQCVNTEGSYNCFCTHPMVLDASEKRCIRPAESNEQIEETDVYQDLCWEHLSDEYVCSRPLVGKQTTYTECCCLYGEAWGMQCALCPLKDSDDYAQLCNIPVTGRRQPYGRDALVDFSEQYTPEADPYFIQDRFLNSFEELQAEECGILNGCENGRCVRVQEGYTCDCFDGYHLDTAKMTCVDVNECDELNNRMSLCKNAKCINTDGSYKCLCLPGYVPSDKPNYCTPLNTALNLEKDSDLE
For the molecule B22, the “IC50, reporter cell assay” value came to 14.5 nM.
Still for that read-out and setting: with B23 the figure was 1.29 nM.
The same measure, in the same setting: with B16 the figure was 1.61 nM; with B17, 6.08 nM.
Take B18: the “IC50, reporter cell assay” value amounted to 0.835 nM.

In the next assay the target is hGARP-proTGFβ1 presented on cells (human, UniProt P01137 30-390; Q14392 20-662). In words: cell-based or functional assay.
As for B22, the “IC50, reporter cell assay” value came out at 3.71 nM.
With B23, the “IC50, reporter cell assay” value was 0.14 nM.
For the molecule B16, the “IC50, reporter cell assay” value stood at 0.401 nM.
Same read-out and setting: with B17 the figure was 0.442 nM.
Still for that read-out and setting: with B18 the figure was 0.264 nM.

The values are drawn from patent US20250215072A1 (published 2025).
